Reference: paper doi:10.1101/293738 (bioRxiv, 2018)

Molecular target: T1, LonS674A labelled with Atto-488 (LonS674A*) (Caulobacter crescentus, UniProt P0CAW0 1-799, S674A, Atto-488 on lysine residues (NHS ester))
T1 sequence (looked up): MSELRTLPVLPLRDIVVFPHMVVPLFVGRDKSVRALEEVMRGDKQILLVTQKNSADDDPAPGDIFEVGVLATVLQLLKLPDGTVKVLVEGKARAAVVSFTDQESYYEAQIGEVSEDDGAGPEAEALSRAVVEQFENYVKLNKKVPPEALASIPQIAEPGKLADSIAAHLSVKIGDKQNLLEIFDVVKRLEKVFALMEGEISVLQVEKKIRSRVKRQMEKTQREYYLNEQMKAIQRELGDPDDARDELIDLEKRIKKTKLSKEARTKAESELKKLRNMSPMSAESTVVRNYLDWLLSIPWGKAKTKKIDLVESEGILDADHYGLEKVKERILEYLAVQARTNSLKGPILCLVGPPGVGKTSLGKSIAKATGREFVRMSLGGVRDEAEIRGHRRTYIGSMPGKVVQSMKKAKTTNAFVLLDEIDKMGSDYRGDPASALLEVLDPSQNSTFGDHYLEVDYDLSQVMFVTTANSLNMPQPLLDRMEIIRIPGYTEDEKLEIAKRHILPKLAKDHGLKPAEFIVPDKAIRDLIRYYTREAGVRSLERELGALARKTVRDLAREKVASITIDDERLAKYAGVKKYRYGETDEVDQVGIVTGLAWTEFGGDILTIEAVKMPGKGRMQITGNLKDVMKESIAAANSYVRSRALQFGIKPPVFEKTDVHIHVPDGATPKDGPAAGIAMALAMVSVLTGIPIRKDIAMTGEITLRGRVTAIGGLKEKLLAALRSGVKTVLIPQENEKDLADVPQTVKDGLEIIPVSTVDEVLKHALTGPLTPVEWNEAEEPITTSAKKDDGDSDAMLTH
Test: MST

Kd: 1180 ± 85 nM
B1: CcrM DNA methyltransferase (purified recombinant) (enzyme, Caulobacter crescentus, UniProt P0CAW2 1-358, looked up)
chain: MKFGPETIIHGDCIEQMNALPEKSVDLIFADPPYNLQLGGDLLRPDNSKVDAVDDHWDQFESFAAYDKFTREWLKAARRVLKDDGAIWVIGSYHNIFRVGVAVQDLGFWILNDIVWRKSNPMPNFKGTRFANAHETLIWASKSQNAKRYTFNYDALKMANDEVQMRSDWTIPLCTGEERIKGADGQKAHPTQKPEALLYRVILSTTKPGDVILDPFFGVGTTGAAAKRLGRKFIGIEREAEYLEHAKARIAKVVPIAPEDLDVMGSKRAEPRVPFGTIVEAGLLSPGDTLYCSKGTHVAKVRPDGSITVGDLSGSIHKIGALVQSAPACNGWTYWHFKTDAGLAPIDVLRAQVRAGMN
